From article PMC2675061

Tests used:
PTP-SL 147-549 (C480S) = test: ITC; ERK2 (75-100 µM) injected into PTP-SL (8-10 µM) in the cell, 30 °C; single-site binding model
[1] = target: PTP-SL full cytoplasmic region (aa147-549); test: SEC; Superdex 200 HR 10/30 analytical column; 10 mM Hepes, 150 mM NaCl, 0.1 mM EDTA, 5 mM DTT, pH 7.5, no SDS; 100 µl sample, 0.5 ml/min; apparent MW against Bio-Rad gel filtration standard

Substance | Ka (PTP-SL 147-549 (C480S)) [M⁻¹] | Kd (PTP-SL 147-549 (C480S)) [nM] | dH (PTP-SL 147-549 (C480S)) [kcal/mol] | stoichiometry N (PTP-SL 147-549 (C480S)) | stoichiometry N [1]
ERK2 (from UniProt P63086 1-358) (enzyme) | 6.6e+06 | 150 | -21 | 1.06 | –
PTP-SL full cytoplasmic region (aa147-549) (domain or fragment) | – | – | – | – | 2
